B1: IgG1 Fc mutant D280E, S354F, A431D, L441I (antibody)
heavy: ASTKGPSVFPLAPSSKSTSGGTAALGCLVKDYFPEPVTVSWNSGALTSGVHTFPAVLQSSGLYSLSSVVTVPSSSLGTQTYICNVNHKPSNTKVDKKVEPKSCDKTHTCPPCPAPELLGGPSVFLFPPKPKDTLMISRTPEVTCVVVDVSHEDPEVKFNWYVEGVEVHNAKTKPREEQYNSTYRVVSVLTVLHQDWLNGKEYKCKVSNKALPAPIEKTISKAKGQPREPQVYTLPPFRDELTKNQVSLTCLVKGFYPSDIAVEWESNGQPENNYKTTPPVLDSDGSFFLYSKLTVDKSRWQQGNVFSCSVMHEDLHNHYTQKSISLSPGK
B2: IgG1 Fc mutant F275I, K334N, V348M (antibody)
heavy: ASTKGPSVFPLAPSSKSTSGGTAALGCLVKDYFPEPVTVSWNSGALTSGVHTFPAVLQSSGLYSLSSVVTVPSSSLGTQTYICNVNHKPSNTKVDKKVEPKSCDKTHTCPPCPAPELLGGPSVFLFPPKPKDTLMISRTPEVTCVVVDVSHEDPEVKINWYVDGVEVHNAKTKPREEQYNSTYRVVSVLTVLHQDWLNGKEYKCKVSNKALPAPIENTISKAKGQPREPQMYTLPPSRDELTKNQVSLTCLVKGFYPSDIAVEWESNGQPENNYKTTPPVLDSDGSFFLYSKLTVDKSRWQQGNVFSCSVMHEALHNHYTQKSLSLSPGK
B3: IgG1 Fc mutant F243L, R255L, E318K (antibody)
heavy: ASTKGPSVFPLAPSSKSTSGGTAALGCLVKDYFPEPVTVSWNSGALTSGVHTFPAVLQSSGLYSLSSVVTVPSSSLGTQTYICNVNHKPSNTKVDKKVEPKSCDKTHTCPPCPAPELLGGPSVFLLPPKPKDTLMISLTPEVTCVVVDVSHEDPEVKFNWYVDGVEVHNAKTKPREEQYNSTYRVVSVLTVLHQDWLNGKKYKCKVSNKALPAPIEKTISKAKGQPREPQVYTLPPSRDELTKNQVSLTCLVKGFYPSDIAVEWESNGQPENNYKTTPPVLDSDGSFFLYSKLTVDKSRWQQGNVFSCSVMHEALHNHYTQKSLSLSPGK
B4: IgG1 Fc mutant P247L, A431V, S442F (antibody)
heavy: ASTKGPSVFPLAPSSKSTSGGTAALGCLVKDYFPEPVTVSWNSGALTSGVHTFPAVLQSSGLYSLSSVVTVPSSSLGTQTYICNVNHKPSNTKVDKKVEPKSCDKTHTCPPCPAPELLGGPSVFLFPPKLKDTLMISRTPEVTCVVVDVSHEDPEVKFNWYVDGVEVHNAKTKPREEQYNSTYRVVSVLTVLHQDWLNGKEYKCKVSNKALPAPIEKTISKAKGQPREPQVYTLPPSRDELTKNQVSLTCLVKGFYPSDIAVEWESNGQPENNYKTTPPVLDSDGSFFLYSKLTVDKSRWQQGNVFSCSVMHEVLHNHYTQKSLFLSPGK
B5: IgG1 Fc mutant K334E, T359N, T366S, Q386R (antibody)
heavy: ASTKGPSVFPLAPSSKSTSGGTAALGCLVKDYFPEPVTVSWNSGALTSGVHTFPAVLQSSGLYSLSSVVTVPSSSLGTQTYICNVNHKPSNTKVDKKVEPKSCDKTHTCPPCPAPELLGGPSVFLFPPKPKDTLMISRTPEVTCVVVDVSHEDPEVKFNWYVDGVEVHNAKTKPREEQYNSTYRVVSVLTVLHQDWLNGKEYKCKVSNKALPAPIEETISKAKGQPREPQVYTLPPSRDELNKNQVSLSCLVKGFYPSDIAVEWESNGRPENNYKTTPPVLDSDGSFFLYSKLTVDKSRWQQGNVFSCSVMHEALHNHYTQKSLSLSPGK
B6: IgG1 Fc mutant P291S; K288E; H268L: A141V (antibody)
heavy: ASTKGPSVFPLAPSSKSTSGGTAVLGCLVKDYFPEPVTVSWNSGALTSGVHTFPAVLQSSGLYSLSSVVTVPSSSLGTQTYICNVNHKPSNTKVDKKVEPKSCDKTHTCPPCPAPELLGGPSVFLFPPKPKDTLMISRTPEVTCVVVDVSLEDPEVKFNWYVDGVEVHNAETKSREEQYNSTYRVVSVLTVLHQDWLNGKEYKCKVSNKALPAPIEKTISKAKGQPREPQVYTLPPSRDELTKNQVSLTCLVKGFYPSDIAVEWESNGQPENNYKTTPPVLDSDGSFFLYSKLTVDKSRWQQGNVFSCSVMHEALHNHYTQKSLSLSPGK

The target of the experiment is T1, soluble monomeric FcγRIIIA (extracellular region joined to linker-AVITAG), allele not stated (human, UniProt P08637 17-208).
T1 construct: extracellular domain; also called FcRIIIA; CD16A; not shown: linker-AVITAG
T1 sequence (P08637 17-208): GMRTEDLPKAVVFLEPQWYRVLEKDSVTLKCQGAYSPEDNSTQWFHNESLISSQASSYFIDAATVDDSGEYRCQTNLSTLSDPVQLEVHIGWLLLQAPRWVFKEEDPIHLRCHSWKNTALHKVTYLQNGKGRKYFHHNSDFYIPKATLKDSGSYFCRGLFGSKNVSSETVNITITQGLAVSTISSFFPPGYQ
As to the kind of experiment: ELISA. A general note: In an ELISA, binding on a coated surface is turned into a signal by an enzyme label.
Turning to B1, the “Binding to FcγRIIIA (ELISA)” value was found to be 3 fold increase.

As to B2, the “Binding to FcγRIIIA (ELISA)” value was determined as 0.5 fold increase.

Take B3: the “Binding to FcγRIIIA (ELISA)” value came out at 1 fold increase.

With B4, the “Binding to FcγRIIIA (ELISA)” value is 1 fold.

Consider B5, for which the “Binding to FcγRIIIA (ELISA)” value amounted to 1 fold increase.

On to B6, for which the “Binding to FcγRIIIA (ELISA)” value came to 0.5 fold decrease.

(Values after US20090098124A1 (MacroGenics, published 2009).)
